According to paper PMC10928157, “The thymocyte-specific RNA-binding protein Arpp21 provides TCR repertoire diversity by binding to the 3’-UTR and promoting Rag1 mRNA expression”:

Columns and labels:
[1] = target: Arpp21 1-330 (UniProt Q9DCB4 1-330); assay: ITC; 25 C, TCEP; 20 mM sodium phosphate pH 6.5, 300 mM NaCl, 2 mM DTT (TCEP instead of DTT for ITC); NMR 298 K, 10% D2O, 50 uM protein; ITC 25 C, 20 uM protein, 200 uM RNA in syringe; conditions: protein: recombinant; tags: His-GB1 tag, TEV-cleaved
Arpp21 1-330, sequence (Q9DCB4 1-330): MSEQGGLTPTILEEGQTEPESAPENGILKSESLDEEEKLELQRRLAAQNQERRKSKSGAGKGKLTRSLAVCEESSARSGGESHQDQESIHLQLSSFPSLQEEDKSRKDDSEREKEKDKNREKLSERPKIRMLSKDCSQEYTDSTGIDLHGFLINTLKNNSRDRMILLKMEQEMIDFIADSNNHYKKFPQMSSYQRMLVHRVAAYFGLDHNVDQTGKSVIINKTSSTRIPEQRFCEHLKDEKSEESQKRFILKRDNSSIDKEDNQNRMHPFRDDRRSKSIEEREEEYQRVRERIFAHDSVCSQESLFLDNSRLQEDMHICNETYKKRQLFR

[2] = target: Arpp21 61-260 (UniProt Q9DCB4 61-260); assay: ITC; 25 C, TCEP; panel label, Methods and text say 61-260, legend says 130-260; 20 mM sodium phosphate pH 6.5, 300 mM NaCl, 2 mM DTT (TCEP instead of DTT for ITC); NMR 298 K, 10% D2O, 50 uM protein; ITC 25 C, 20 uM protein, 200 uM RNA in syringe; conditions: protein: recombinant; tags: His-GB1 tag, TEV-cleaved
Arpp21 61-260, sequence (Q9DCB4 61-260): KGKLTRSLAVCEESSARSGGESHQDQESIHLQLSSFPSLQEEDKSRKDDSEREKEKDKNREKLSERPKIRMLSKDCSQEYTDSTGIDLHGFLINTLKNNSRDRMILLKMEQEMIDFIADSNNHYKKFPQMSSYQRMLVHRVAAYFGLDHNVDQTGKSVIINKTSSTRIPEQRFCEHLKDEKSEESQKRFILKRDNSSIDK

UUUUUUUUU (ssRNA) [U9 RNA]
Kd [1]: 4.7 µM
Kd [2]: 4.8 µM
